Results as given in patent US20230034906A1 (TRINOMAB BIOTECH, published 2023).
Numbering of substitutions follows the chain as printed.

Assays:
Assay in all cases: indirect ELISA, antibody titrated on gB glycoprotein mutant
[1] = target: T1, gB_Towne protein with N383 mutated into glutamine (human cytomegalovirus, strain Towne, UniProt F5HB53 25-700)
T1 chain: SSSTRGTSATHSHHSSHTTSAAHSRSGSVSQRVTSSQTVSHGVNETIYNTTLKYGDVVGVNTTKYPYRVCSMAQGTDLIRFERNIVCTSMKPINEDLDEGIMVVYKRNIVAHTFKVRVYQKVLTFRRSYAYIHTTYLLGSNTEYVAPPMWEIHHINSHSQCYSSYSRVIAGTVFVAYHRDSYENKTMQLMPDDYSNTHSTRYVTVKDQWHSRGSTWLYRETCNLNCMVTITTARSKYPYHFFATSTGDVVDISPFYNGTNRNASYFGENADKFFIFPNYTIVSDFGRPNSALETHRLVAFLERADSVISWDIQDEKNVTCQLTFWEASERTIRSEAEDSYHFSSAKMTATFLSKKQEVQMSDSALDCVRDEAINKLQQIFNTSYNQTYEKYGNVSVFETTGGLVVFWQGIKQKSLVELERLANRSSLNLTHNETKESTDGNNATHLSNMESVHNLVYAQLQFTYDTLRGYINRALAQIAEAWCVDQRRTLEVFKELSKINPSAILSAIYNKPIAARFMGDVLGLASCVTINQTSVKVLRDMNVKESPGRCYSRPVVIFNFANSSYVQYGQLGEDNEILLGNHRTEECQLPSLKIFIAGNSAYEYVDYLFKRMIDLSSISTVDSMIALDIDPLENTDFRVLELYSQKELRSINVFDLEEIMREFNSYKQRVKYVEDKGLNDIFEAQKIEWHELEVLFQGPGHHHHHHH

[2] = target: T2, gB_Towne protein with N409 mutated into glutamine (human cytomegalovirus, strain Towne, UniProt F5HB53 25-700)
T2 chain: T1 chain with Q359N, N385Q

[3] = target: T3, gB_Towne protein with N447 mutated into glutamine (human cytomegalovirus, strain Towne, UniProt F5HB53 25-700)
T3 chain: T1 chain with Q359N, N423Q

[4] = target: T4, gB_Towne protein with N452 mutated into glutamine (human cytomegalovirus, strain Towne, UniProt F5HB53 25-700)
T4 chain: T1 chain with Q359N, N428Q

Measured: binding result

B1: TRN1019 (antibody, V domains shown)
VH: QVQLVQSGAEVKKPGESLKISCKGSGYTFTNYWIGWVRQMPGAGLEWMAIIFPRDSYSAYSPSFQGRVTISVDKSISTAYLHWSSLEASDTAVYYCAIYNDLRSGNSWGQGTPLIVSS
VL: DIQMTQSPSSLSASVGDRVTITCRASQSITKYLNWYQQKPGRAPKLLIHTTSTLQSGVPSRFSGSGSGTDFTLTISSLQLEDFGTYYCQQSFSTLWTFGQGTKLDIKR
notes: Fully human antibody; kappa light chain
binds: all assays above
